Experimental data: publication PMC7442622, “A functionally neutral single chain antibody to measure beta‐1 integrin uptake and recycling” (Traffic (Copenhagen, Denmark), 2020)

Target: T1, β1 integrin (Homo sapiens, UniProt P05556)
T1 construct: β1 integrin (integrin beta-1), endogenous on the surface of H1975 and hTERT-RPE1 cells; On cells β1 integrin stands in αβ heterodimers; also called beta‐1 integrin; endogenous β1 integrin; source: endogenous, on H1975 cells; endogenous, on hTERT‐RPE1 cells
T1 sequence (P05556 21-798): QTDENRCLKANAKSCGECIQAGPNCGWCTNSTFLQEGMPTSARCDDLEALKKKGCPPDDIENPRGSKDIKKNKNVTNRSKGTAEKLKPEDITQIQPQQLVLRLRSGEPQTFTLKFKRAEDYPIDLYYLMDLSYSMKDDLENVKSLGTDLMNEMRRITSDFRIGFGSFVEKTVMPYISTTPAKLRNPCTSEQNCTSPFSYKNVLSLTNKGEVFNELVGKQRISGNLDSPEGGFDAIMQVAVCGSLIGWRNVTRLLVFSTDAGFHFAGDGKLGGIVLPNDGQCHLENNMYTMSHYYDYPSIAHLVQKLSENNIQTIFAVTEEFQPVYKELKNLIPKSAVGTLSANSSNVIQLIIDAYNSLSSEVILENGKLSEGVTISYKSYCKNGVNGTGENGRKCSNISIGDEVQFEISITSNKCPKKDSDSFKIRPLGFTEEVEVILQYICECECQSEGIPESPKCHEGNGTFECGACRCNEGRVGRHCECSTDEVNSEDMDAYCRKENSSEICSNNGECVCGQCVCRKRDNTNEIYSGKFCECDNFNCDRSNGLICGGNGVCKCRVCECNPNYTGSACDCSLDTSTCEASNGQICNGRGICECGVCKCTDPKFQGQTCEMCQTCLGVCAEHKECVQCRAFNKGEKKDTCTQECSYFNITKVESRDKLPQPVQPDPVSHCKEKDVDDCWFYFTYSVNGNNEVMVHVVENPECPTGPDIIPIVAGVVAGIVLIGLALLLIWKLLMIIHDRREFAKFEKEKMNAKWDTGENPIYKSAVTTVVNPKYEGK
Experiment: ELISA; cell-based ELISA binding isotherm on H1975 cells seeded on gelatin- and fibronectin-coated 96-well plates; antibody dilutions in PBS4+ (1 mM MgCl2, 1 mM CaCl2, 5 mM glucose, 1% BSA), 30 minutes at 4°C; KD as the concentration at half-maximal binding; n = 4
Conditions: one partner purified

Binder	Kd
MBP‐scFv^K20 (scFv, V domains shown, VH of mouse mAb K20; flexible linker, 3x repeat of GGGGS; VL of mouse mAb K20; 71 kDa fusion; a TEV site lies between MBP and the scFv; monovalent; also called MBP‐fused scFv^K20; anti‐β1 integrin scFv^K20; source: High Five insect cells, baculovirus, secreted; purified (IMAC, SEC peak 2); also as culture media containing secreted scFv^K20; not shown: His6, N-terminal, kept; MBP, N-terminal, …) VH: QVQLQESGTELVRPGASVKLSCKASGYTFTDYYISWVKQRPGQGLEWIARIYPGSGNTFYNEKFKGKATLTAETSSNTAYMQLSSLTSEDSAVYFCAIYYGSGDYWGQGTTVTVSS VL: DIQLTQSPSSLSASLGGKVTITCKASQDINKYIAWYQHEPGKGPRLLIRYTSKLESGIPSRFSGSGSGRDYSFSISNLEPEDIATYYCLQYYNLWTFGGGTKLEIK	6.54 ± 1.34 nM
mouse monoclonal anti‐β1 integrin antibody mAb K20 (antibody, V domains shown, VH of mAb K20; constant region of the heavy chain of a mouse IgG; VL of mAb K20; constant region of the light chain of a mouse antibody; Bivalent IgG; also called mAb K20 IgG; parent mAb K20; source: bought: Beckman Coulter; copies: 2 + 2) VH: QVQLQESGTELVRPGASVKLSCKASGYTFTDYYISWVKQRPGQGLEWIARIYPGSGNTFYNEKFKGKATLTAETSSNTAYMQLSSLTSEDSAVYFCAIYYGSGDYWGQGTTVTVSS VL: DIQLTQSPSSLSASLGGKVTITCKASQDINKYIAWYQHEPGKGPRLLIRYTSKLESGIPSRFSGSGSGRDYSFSISNLEPEDIATYYCLQYYNLWTFGGGTKLEIK	1.2 ± 0.14 nM
